The supplement of paper PMC9876800

Tested on: peptide library, one residue held at a place counted from the S/T acceptor
Test: relative phosphorylation of the sub-library (ratio to the mean residue at this position); human; higher = residue favoured
Outline: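 In 384-well plates, purified recombinant kinases (human or orthologue constructs) were incubated for 90 min under kinase-specific conditions with 50 μM biotinylated degenerate peptide sub-libraries and 50 μM ATP spiked with γ-32P-ATP. Each sub-library fixed a single residue at one position around a central Ser/Thr. Relative sub-library phosphorylation, measured by phosphorimaging and densitometry of streptavidin membrane spots, is given as a ratio to the mean residue at that position.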

Chain of PAK2, construct: aa3-end (Q13177 3-524, looked up): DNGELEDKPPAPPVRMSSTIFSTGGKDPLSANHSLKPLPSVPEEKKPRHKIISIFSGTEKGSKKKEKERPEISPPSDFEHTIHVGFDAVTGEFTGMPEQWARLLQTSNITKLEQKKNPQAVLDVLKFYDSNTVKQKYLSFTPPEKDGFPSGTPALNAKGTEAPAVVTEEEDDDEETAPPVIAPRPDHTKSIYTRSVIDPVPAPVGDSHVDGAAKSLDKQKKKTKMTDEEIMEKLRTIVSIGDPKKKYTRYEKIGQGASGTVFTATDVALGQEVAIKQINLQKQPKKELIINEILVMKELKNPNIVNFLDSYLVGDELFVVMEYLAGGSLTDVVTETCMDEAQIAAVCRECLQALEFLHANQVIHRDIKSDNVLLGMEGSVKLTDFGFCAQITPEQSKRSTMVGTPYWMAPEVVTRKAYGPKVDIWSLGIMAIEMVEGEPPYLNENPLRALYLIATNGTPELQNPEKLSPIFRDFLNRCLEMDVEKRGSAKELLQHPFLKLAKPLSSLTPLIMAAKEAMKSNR
Chain of MAP3K10, construct: aa1-449 (Q02779 1-449, looked up): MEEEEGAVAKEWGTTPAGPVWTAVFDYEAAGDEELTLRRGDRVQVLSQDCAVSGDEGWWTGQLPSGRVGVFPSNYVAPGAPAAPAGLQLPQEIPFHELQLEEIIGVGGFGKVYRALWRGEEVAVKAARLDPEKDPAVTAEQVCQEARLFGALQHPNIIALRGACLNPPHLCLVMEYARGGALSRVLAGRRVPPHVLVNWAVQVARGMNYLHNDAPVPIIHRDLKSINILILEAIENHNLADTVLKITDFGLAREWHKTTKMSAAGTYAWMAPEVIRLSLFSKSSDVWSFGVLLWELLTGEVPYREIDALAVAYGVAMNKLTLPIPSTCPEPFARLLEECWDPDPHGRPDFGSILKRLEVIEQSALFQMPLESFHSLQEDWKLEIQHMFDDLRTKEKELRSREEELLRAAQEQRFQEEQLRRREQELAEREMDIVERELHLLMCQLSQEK
Chain of STK10, construct: aa18-317 (O94804 18-317, looked up): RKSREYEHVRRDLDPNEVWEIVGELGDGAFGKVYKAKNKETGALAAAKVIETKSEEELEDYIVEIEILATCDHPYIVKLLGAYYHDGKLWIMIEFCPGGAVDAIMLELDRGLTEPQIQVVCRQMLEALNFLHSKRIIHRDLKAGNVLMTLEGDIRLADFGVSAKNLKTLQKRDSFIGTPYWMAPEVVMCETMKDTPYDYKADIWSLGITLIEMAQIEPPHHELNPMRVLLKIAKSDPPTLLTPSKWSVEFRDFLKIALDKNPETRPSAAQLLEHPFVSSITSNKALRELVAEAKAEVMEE
Chain of NEK11, construct: Full length (Q8NG66 whole entry, looked up): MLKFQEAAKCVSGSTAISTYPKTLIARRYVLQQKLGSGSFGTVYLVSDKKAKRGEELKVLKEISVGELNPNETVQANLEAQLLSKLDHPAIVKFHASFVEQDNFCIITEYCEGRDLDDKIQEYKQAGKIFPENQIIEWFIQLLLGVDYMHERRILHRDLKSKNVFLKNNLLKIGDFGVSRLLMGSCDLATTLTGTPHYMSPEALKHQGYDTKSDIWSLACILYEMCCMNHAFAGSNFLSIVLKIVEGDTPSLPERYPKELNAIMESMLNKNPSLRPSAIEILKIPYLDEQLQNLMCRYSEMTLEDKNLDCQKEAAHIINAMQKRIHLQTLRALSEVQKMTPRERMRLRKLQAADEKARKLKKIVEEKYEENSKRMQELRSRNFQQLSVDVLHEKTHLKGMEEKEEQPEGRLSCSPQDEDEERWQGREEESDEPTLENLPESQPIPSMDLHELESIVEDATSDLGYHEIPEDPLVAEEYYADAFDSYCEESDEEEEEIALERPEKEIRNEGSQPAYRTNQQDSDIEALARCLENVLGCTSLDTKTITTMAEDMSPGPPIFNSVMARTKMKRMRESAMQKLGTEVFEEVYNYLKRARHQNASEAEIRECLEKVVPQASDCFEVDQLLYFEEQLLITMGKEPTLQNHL

MAP3K10, construct: aa1-449 (from UniProt Q02779)
relative phosphorylation
Details	at +1	at +2	at +3	at +4	at -1	at -2	at -3	at -4	at -5
A fixed	0.988	0.921	1.06	1.24	0.881	0.969	1.12	1.23	1.48
D fixed	0.28	0.398	0.506	0.72	0.775	0.594	0.888	1.11	1.11
E fixed	0.404	0.392	0.439	0.573	0.65	0.584	0.827	0.909	0.764
F fixed	1.53	0.602	1.19	0.779	1.05	1.44	0.935	0.693	0.878
G fixed	0.999	0.749	1.42	1.43	0.603	0.911	1.28	1.43	1.39
H fixed	1.65	2.11	1.34	1.07	1.39	1.2	1.19	1.11	1.17
I fixed	0.774	0.445	0.773	0.705	0.65	0.505	0.484	0.541	0.596
K fixed	1.12	1.84	1.01	1.44	1.22	0.514	0.964	1.08	0.953
L fixed	0.764	0.561	0.897	0.75	0.973	0.789	0.731	0.698	0.712
M fixed	1.33	0.634	0.985	0.746	1.14	1.3	0.821	0.879	0.725
N fixed	0.977	1.07	1.06	1.06	1.23	1.08	1.54	1.17	1.01
P fixed	0.32	0.67	1.06	1.7	0.95	1.87	1.51	1.56	1.28
Q fixed	1.54	1.24	1.06	1.35	1.37	1.12	1.26	1.05	0.951
R fixed	1.35	2.26	0.966	0.912	1.09	0.569	0.762	0.957	1
V fixed	0.942	0.635	0.791	0.777	0.806	0.589	0.665	0.636	0.846
W fixed	1.05	1.09	1.28	0.923	1.07	1.5	0.997	1.09	1.24
Y fixed	0.978	1.39	1.16	0.832	1.15	1.47	1.02	0.843	0.884
pThr fixed	0.578	0.503	0.623	0.634	0.63	0.706	0.849	0.914	0.992
pTyr fixed	0.455	0.311	0.519	0.452	0.862	0.525	0.707	0.616	0.73

STK10, construct: aa18-317 (from UniProt O94804)
relative phosphorylation
Details	at +1	at +2	at +3	at +4	at -1	at -2	at -3	at -4	at -5
A fixed	0.6	0.853	0.817	0.9	0.811	0.667	0.873	0.975	1.15
D fixed	0.168	0.371	0.456	0.637	0.412	0.51	0.598	0.695	0.905
E fixed	0.167	0.225	0.409	0.563	0.304	0.216	0.598	0.776	0.605
F fixed	1.23	0.634	0.846	0.816	0.911	2.13	1.02	0.85	0.846
G fixed	0.564	1.09	1.09	1.21	0.703	0.543	0.936	1.35	1.28
H fixed	1.06	1.48	1.26	1.04	1.41	1.07	1.25	1.16	1.15
I fixed	1.47	0.48	0.568	0.666	0.539	0.384	0.505	0.718	0.672
K fixed	1.04	2.28	1.92	1.7	1.99	1.86	2.07	1.62	1.81
L fixed	2.1	0.629	0.809	0.876	1.18	0.559	0.612	0.767	0.654
M fixed	1.83	0.729	0.72	0.827	1.12	0.918	0.759	0.858	0.768
N fixed	0.757	1.12	0.961	1.17	1.13	0.879	1.07	0.837	1.15
P fixed	0.321	1.05	1.62	1.48	0.584	0.492	0.85	1.14	1.09
Q fixed	0.763	0.952	0.954	1.17	1.03	0.777	1.02	0.956	0.82
R fixed	1.18	3.13	2.06	1.63	1.96	1.72	2.01	1.58	1.73
V fixed	0.956	0.56	0.613	0.724	0.6	0.485	0.475	0.795	0.814
W fixed	1.49	0.732	0.987	0.896	0.93	0.881	1.24	1.05	0.769
Y fixed	1.3	0.688	0.91	0.699	1.38	2.91	1.11	0.877	0.788
pThr fixed	0.44	0.484	0.586	0.537	0.274	0.358	0.612	0.857	0.871
pTyr fixed	0.362	0.314	0.667	0.476	0.382	0.491	0.938	0.816	0.855

NEK11, construct: Full length (from UniProt Q8NG66)
relative phosphorylation
Details	at +1	at +2	at +3	at +4	at -1	at -2	at -3	at -4	at -5
A fixed	0.432	0.613	0.845	0.834	0.977	1.38	1.06	0.887	1.02
D fixed	0.25	0.395	0.499	0.597	0.64	0.742	0.568	0.73	0.677
E fixed	0.234	0.349	0.53	0.606	0.59	0.579	0.643	0.659	0.709
F fixed	2.35	0.978	1.48	0.997	0.918	1.49	1.22	1.33	1.18
G fixed	0.494	0.664	0.797	0.876	1.57	1.28	1.01	1.2	1.36
H fixed	0.625	1.42	0.962	1.28	1.1	0.909	0.976	0.929	1.11
I fixed	2	0.549	0.797	0.497	0.491	0.542	0.671	0.724	0.866
K fixed	0.563	1.85	1.3	1.96	1.67	0.867	1.12	1.06	0.901
L fixed	1.86	0.787	1.25	0.805	0.914	0.975	1.12	0.945	0.763
M fixed	2.27	1.06	1.2	0.824	1.42	1.06	1.4	1.07	1.13
N fixed	0.573	1.06	1.05	1.11	1.23	1.42	1.18	1.08	1.03
P fixed	0.479	0.795	0.931	1	0.558	1.05	0.971	1.08	0.927
Q fixed	0.605	0.78	0.885	1.27	0.942	0.944	0.983	1.06	0.893
R fixed	0.494	1.93	0.864	1.02	1.53	0.991	1.2	1.12	1.23
V fixed	0.926	0.566	0.965	0.695	0.605	0.601	0.696	0.778	0.863
W fixed	1.23	1.02	1.43	1.42	0.764	1.1	0.979	1.31	1.21
Y fixed	1.62	2.17	1.21	1.21	1.08	1.06	1.21	1.03	1.13
pThr fixed	0.998	1.15	1.06	0.672	0.94	1.38	1.37	1.47	1.17
pTyr fixed	0.509	0.51	0.848	0.63	1.11	0.973	1.42	0.98	1.27

PAK2, construct: aa3-end (from UniProt Q13177)
relative phosphorylation
Details	at +1	at +2	at +3	at +4	at -1	at -2	at -3	at -4	at -5
A fixed	0.794	0.823	0.781	0.846	0.808	0.606	0.786	0.97	1.05
D fixed	0.359	0.391	0.855	0.98	0.562	0.197	0.506	0.844	0.724
E fixed	0.432	0.37	0.921	0.988	0.522	0.222	0.469	0.891	0.602
F fixed	1.18	1.76	1.77	0.95	0.956	0.464	0.699	0.729	0.803
G fixed	0.916	0.643	0.868	1.01	0.668	0.479	0.891	1.06	1.2
H fixed	0.997	1.4	1.14	1.07	1.29	1.44	1.2	1.09	1.16
I fixed	1.22	1.22	1.03	0.87	0.796	0.606	0.583	0.673	0.741
K fixed	1.01	0.452	0.623	0.938	1.41	1.12	1.78	1.58	1.81
L fixed	1.16	1.37	1.13	1.02	1.18	0.391	0.561	0.729	0.707
M fixed	1.64	1.14	1.07	1.07	1.17	0.416	0.599	0.885	0.672
N fixed	0.738	0.734	0.847	1.22	1.07	0.503	0.977	1.02	1.04
P fixed	0.222	0.625	0.903	1.38	0.723	0.935	0.894	0.944	0.926
Q fixed	1.06	0.797	0.754	1.08	1.08	0.572	0.827	0.901	0.889
R fixed	1.19	0.658	0.657	0.821	1.72	7.1	3.91	2.26	2.31
V fixed	1.2	1.01	0.906	0.787	0.763	0.642	0.557	0.688	0.694
W fixed	1.65	1.18	1.33	1.15	1.03	0.485	0.954	0.887	0.801
Y fixed	1.23	2.42	1.42	0.824	1.25	0.821	0.801	0.84	0.858
pThr fixed	0.66	0.551	0.597	1.12	0.392	0.495	0.74	1.04	0.931
pTyr fixed	0.822	2.1	1.11	0.856	0.652	0.379	0.8	0.71	0.876
